Measured values: patent publication US6458539, “Photoselection of nucleic acid ligands” (Somalogic, Inc.)

Assays:
[1] = target: PDGF (platelet derived growth factor) (UniProt P01127); experiment: filter; settings: 5-bromo-2'-deoxyuridine (BrdU) substituted for T
[2] = target: PDGF (platelet derived growth factor) (UniProt P01127); settings: 5-bromo-2'-deoxyuridine (BrdU) substituted for T; photocrosslinking rate, 308 nm
[3] = target: T1, bFGF(155) (basic fibroblast growth factor, FGF2) (Homo sapiens, UniProt P09038 SEQ:1-155); experiment: filter; 1xPBS, 2 mM MgCl2, 0.01% HSA, 1 mM DTT, 37 C; Table 7 gives a different KD of 5.3e-9 M; Table 2 prints CACCC where SEQ 70 has CAGCC; settings: tags: expressed in E. coli; Bachem California lot SN 433; label: 5'-32P
T1 sequence (P09038 134-288): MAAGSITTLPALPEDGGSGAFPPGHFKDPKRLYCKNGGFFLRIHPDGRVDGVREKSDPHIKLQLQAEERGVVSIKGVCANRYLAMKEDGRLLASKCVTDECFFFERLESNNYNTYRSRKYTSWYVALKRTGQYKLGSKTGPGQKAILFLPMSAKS
Protocol: (§1) Nitrocellulose filter binding was used to assess ligand affinity for bFGF_{(155)}. This was accomplished by first preparing 2,000 cpm/30 μL of 5'-^32P-radiolabeled material (≈1–5 fmol) of each sequence by dilution with 1×crosslink binding buffer (XLBB) (1×PBS/2 mM MgCl_2/0.01% HSA/1.0 mM dithiothreitol (DTT)) to give 2×DNA. Each 2×oligonucleotide sample was mixed with 30 μL of each bFGF_{(155)} concentration to be evaluated in a 96 well tray. bFGF_{(155)} concentrations were prepared by serial dilution with 1×XLBB. After incubation at 37° C. for 15 minutes, a multi-pipeter was used to load 40 μL of each DNA/bFGF_{(155)} mixture onto a pre-washed Gibco nitrocellulose binding curve apparatus followed by washing with a dissociation wash buffer. Bound DNA was then measured by phosphorimage and a binding curve for the percent bound DNA vs. [bFGF] was calculated by Kaleidograph ver. 3.09 software (Synergy Software Co., Reading, Pa).

[4] = target: T1, bFGF(155) (basic fibroblast growth …); experiment: filter; 1xPBS, 2 mM MgCl2, 0.01% HSA, 1 mM DTT, 37 C; Table 7 gives a different KD of 1.3e-10 M; settings: tags: expressed in E. coli; Bachem California lot SN 433; label: 5'-32P
Protocol: as §1

[5] = target: VEGF (vascular endothelial growth factor) (UniProt P15692-4 P15692-4:27-191); experiment: filter; 1xPBS, 2 mM MgCl2, 37 C; settings: tags: R&D Systems; chain copies: 2; label: 5'-32P
Sequence of VEGF (vascular endothelial growth factor) (P15692 other isoform, or with tags, fused parts or gaps): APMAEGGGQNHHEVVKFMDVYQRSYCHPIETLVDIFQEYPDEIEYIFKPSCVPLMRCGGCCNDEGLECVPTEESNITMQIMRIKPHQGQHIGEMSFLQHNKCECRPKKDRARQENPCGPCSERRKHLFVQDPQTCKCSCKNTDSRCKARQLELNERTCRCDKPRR

Sequence of PDGF (platelet derived growth factor) (P01127 82-190): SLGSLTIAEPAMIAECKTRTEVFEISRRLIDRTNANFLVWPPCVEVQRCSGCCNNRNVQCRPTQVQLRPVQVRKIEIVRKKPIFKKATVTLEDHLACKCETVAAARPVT

“GGGAGGACGATGCGGTGACGTAAGAGTGTAATCGATGCAGCCTGGCAGACGACGAGCGGGA [06.50]” gave a Kd ([1]; 53-fold weaker than bFGF) of 280 nM and an activity [2] of 61000 M⁻¹ s⁻¹.

Molecule “GGGAGGACGATGCGGGCGAAGGCACACCGAGTTCATAGTATCCCACAGACGACGAGCGGGA [06.15]” has a Kd ([1]; 1500-fold weaker than bFGF (Table 6), Table 3 states relative KD >1000) of 200 nM and an activity [2] of 65000 M⁻¹ s⁻¹.

B1: 06.50 (ssDNA)
DNA: GGGAGGACGATGCGGTGACGTAAGAGTGTAATCGATGCAGCCTGGCAGACGACGAGCGGGA
modifications: 5-bromo-2'-deoxyuridine (BrdU) substituted for T
B1 gave a Kd [3] of 0.56 nM.

B2: 06.15 (ssDNA)
DNA: GGGAGGACGATGCGGGCGAAGGCACACCGAGTTCATAGTATCCCACAGACGACGAGCGGGA
modifications: 5-bromo-2'-deoxyuridine (BrdU) substituted for T
With B2 the Kd [4] was 0.016 nM and the binding signal [5] was > 1000 fold KD relative to bFGF.
